Results published in US11098109B2, “Single-chain variable fragment anti-CD133 antibodies and uses thereof” (REGENTS OF THE UNIVERSITY OF MINNESOTA, priority 2010, dated 2021).

T1: human prominin-1 (Homo sapiens, UniProt O43490, DEL381-611)
T1 construct: His-tag (6xHis) (N); made in house
T1 sequence (O43490 with tags, fused parts or gaps DEL381-611): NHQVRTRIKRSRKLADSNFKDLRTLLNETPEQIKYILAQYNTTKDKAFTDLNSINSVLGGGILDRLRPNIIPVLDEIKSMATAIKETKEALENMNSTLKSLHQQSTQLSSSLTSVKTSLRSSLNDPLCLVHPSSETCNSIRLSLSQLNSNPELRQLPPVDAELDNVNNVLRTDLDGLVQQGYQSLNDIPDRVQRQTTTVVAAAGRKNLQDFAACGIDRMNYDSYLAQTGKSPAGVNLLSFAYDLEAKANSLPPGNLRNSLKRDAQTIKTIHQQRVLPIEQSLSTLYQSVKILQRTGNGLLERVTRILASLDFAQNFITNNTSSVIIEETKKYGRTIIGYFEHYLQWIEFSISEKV

T2: CD133 (Homo sapiens, UniProt O43490)
T2 construct: endogenous in cells
T2 sequence (O43490 20-865): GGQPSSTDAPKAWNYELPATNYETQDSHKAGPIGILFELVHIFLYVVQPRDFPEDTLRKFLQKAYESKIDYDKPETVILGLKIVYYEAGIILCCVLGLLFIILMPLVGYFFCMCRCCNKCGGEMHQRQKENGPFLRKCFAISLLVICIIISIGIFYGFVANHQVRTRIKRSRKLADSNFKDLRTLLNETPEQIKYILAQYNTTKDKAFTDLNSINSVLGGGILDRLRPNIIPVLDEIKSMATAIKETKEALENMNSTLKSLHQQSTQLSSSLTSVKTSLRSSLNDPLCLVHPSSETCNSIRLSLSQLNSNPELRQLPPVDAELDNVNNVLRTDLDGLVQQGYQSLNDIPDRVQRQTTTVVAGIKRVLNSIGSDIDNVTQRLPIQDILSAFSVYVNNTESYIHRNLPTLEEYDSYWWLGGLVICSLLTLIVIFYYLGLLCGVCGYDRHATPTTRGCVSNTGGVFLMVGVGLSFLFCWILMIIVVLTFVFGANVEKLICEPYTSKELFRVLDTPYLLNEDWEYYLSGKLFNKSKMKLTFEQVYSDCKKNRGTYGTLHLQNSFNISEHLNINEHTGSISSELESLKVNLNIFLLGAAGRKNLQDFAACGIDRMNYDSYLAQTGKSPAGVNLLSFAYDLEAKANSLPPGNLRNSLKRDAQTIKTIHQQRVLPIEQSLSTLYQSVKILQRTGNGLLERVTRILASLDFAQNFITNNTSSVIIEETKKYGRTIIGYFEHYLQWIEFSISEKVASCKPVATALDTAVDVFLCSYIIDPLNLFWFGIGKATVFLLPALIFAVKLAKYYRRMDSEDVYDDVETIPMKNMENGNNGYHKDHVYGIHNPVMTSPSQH

B1: Hybridoma Clone 7: monoclonal antibody produced by Hybridoma Clone 7 that specifically binds to human CD133 (antibody, V domains shown)
VL: DIVLSQSPAIMSASPGEKVTISCSASSSVSYMYWYQQKPGSSPKPWIYRTSNLASGVPARFSGSGSGTSYSLTISSMEAEDAATYYCQQYHSYPPTFGAGTKLELK
VH: LEVKLVESGPELKKPGETVKISCKASGYTFTDYSMHWVNQAPGKGLKWMGWINTETGEPSYADDFKGRFAFSLETSASTAYLQINNLKNEDTATYFCATDYGDYFDYWGQGTTLTVSS
B2: No. 11 scFv: soluble scFv of the Hybridoma Clone 7 antibody expressed in E. coli Top10F', SEQ ID NO:58; also used FITC-labeled (protein)
scFv: MDIVLSQSPAIMSASPGEKVTISCSASSSVSYMYWYQQKPGSSPKPWIYRTSNLASGVPARFSGSGSGTSYSLTISSMEAEDAATYYCQQYHSYPPTFGAGTKLELKSSGGGGSGGGGGGSSRSSLEVKLVESGPELKKPGETVKISCKASGYTFTDYSMHWVNQAPGKGLKWMGWINTETGEPSYADDFKGRFAFSLETSASTAYLQINNLKNEDTATYFCATDYGDYFDYWGQGTTLTVSS
modifications: optionally FITC-labeled; scFv polypeptide

What was measured:
[1] = molecular target: T1, human prominin-1; test: Soluble scFv ELISA; assay type: binding; details: for binding specificity in soluble scFv ELISA: scFv from culture medium and periplasmic space
Procedure: A single colony was picked from No. 11 DNA transformed Top10F′ E. coli LB-Amp plate in and used to inoculate 25 mL LB medium with 100 μg/mL Amp. The culture was shaken at 37° C. at 250 rpm overnight.
The 25 mL overnight culture was diluted to 500 mL LB containing Amp and was shaken at 37° C. at 250 rpm for about two hours until the OD600 reached 0.5 to 0.7. IPTG was added to a final concentration of 1 mM. The culture was shaken at 30° C. overnight.
The culture was centrifuged at 5.000 g for 20 minutes at 4° C. The supernatant was kept for ELISA.
The cell pellet was completely suspended with 50 mL ice-cold PBS containing protease inhibitors (1 mM PMSF), and was sonicated on ice in short bursts. The power setting was 7 min, 40% power cycle 5 (HD2200 W/MS 73). Triton X-100 was added to the cell lysate to a final concentration of 1% and was mixed gently for 30 minutes at room temperature to aid in solubilization of the fusion protein.
The mixture was centrifuged at 15,000 rpm (Heraeus #3334 rotor) for 30 minutes at 4° C., and the supernatant was taken for ELISA.
The 2 supernatants were diluted (one is from overnight culture supernatant, and the other is from overnight culture pellet) containing soluble mouse scFv with equal volume of 5% milk and were incubated for 10 minutes at room temperature.
100 μL of the diluted scFv was added to each well (coated with human prominin-1), and incubated for one hour at 37° C.
The plate was washed five times.
50 μL per well of diluted secondary antibody conjugate at 1:2.000 (HOURP-conjugated anti-HA, diluted in 5% milk) was added, and incubated for one hour at 37° C.
50 μL/well TMB substrate was added for detection, and incubated for 30 minutes at room temperature.
Soluble scFv ELISA was performed to confirm the binding specificity to the target protein. Here, the expressed scFv was captured by human prominin-1 pre-coated plate, and the binding of the soluble scFv fused with HA tag was detected with anti-HA Ab-HOURP conjugate. […] Supernatant and pellet are test samples. PC means positive control, hybridoma secreted antibody (diluted at 1:2000) was used. BLK means blank.

[2] = molecular target: T2, CD133; test: Western blot screening of hybridoma supernatants on Caco-2 lysates; assay type: binding; details: CD133^+ Caco-2 cell lysates
Procedure: FIG. 2: Analysis of the newly generated CD133 hybridoma. Supematants of hybridoma clones were tested as a primary antibody in western blot (A) and Immunofluorescence (B) assays. Pre-immunized serum (-ve) or post immune anti sera (a.s.) served as controls. For western blot, Caco-2 lysates normalized for protein concentration were loaded onto a SDS-PAGE gel, resolved, blotted onto a nitrocellulose membrane and cut into strips. Each strip was probed with supernatant from the identified hybridoma. Membrane in Lane 1 was probed with a commercially available antibody (ab 19898, Abcam) and served as an additional positive control. For immunofluorescence, Caco-2 cells were fixed and immunostained with the hybridoma supernatants. A commercially available antibody (293C3, Militenyi) was used as additional positive control. Scale bars in the panel represent 200 micrometers. Supernatant of Hybridoma Clone 7 was used in the immunohistochemical analysis of primary glioblastoma and kidney tissue (C).
Caco-2 cells were lysed in RIPA buffer (Thermo Scientific, Waltham. Mass.) and centrifuged at 10,000 rpm and 4° C. to remove debris. The protein concentration of cell lysates was measured using BCA protein assay kit (Thermo Scientific, Waltham, Mass.), with bovine serum albumin as the standard. […]

Row | Molecule | A450, Positive Control ([1]; hybridoma secreted antibody diluted at 1:2000) | Western blot band with hybridoma supernatant [2] | A450, Supernatant ([1]; culture supernatant of Top10F' E. coli) | A450, Pellet ([1]; lysate of culture pellet (periplasmic space)) | binding specificity in soluble scFv ELISA [1] | binding specificity in soluble scFv ELISA ([1]; listed as Recombinant Clone 11 scFv)
1 | B1 | 1.9 | distinct band corresponding to the predicted molecular weight of CD133 | – | – | – | –
2 | B2 | – | – | 0.9 | 1.4 | confirmed specific for human prominin-1 protein | specific for human CD133
